Consider eight proteins from paper PMC11870023, “A facile assay for zDHHC palmitoyl transferase activation elucidates effects of mutation and modification” (Journal of Lipid Research, 2025).

Holding throughout (test): auto-S-palmitoylation of HEK293 membranes, SDS-PAGE fluorescence normalised to tag Western blot
(In general: In western blotting, separated proteins are transferred to a membrane and probed.)

Substrate in series [1]: CC(C)(COP(=O)(O)OP(=O)(O)OC[C@H]1O[C@@H](n2cnc3c(N)ncnc32)[C@H](O)[C@@H]1OP(=O)(O)O)[C@@H](O)C(=O)NCCC(=O)NCCSC(=O)CCCCCCCCCCCCCCCNc1ccc([N+](=O)[O-])c2nonc12
The format is cell-based, Mus musculus. Particulars: pH 7.4, 37 °C, labelled compound, covalent thioester at active-site Cys.

Substrate in series [2]: CC(C)(COP(=O)(O)OP(=O)(O)OC[C@H]1O[C@@H](n2cnc3c(N)ncnc32)[C@H](O)[C@@H]1OP(=O)(O)O)[C@@H](O)C(=O)NCCC(=O)NCCSC(=O)CCCCCCCCCCCCCCCNc1ccc([N+](=O)[O-])c2nonc12
The format is cell-based, Homo sapiens. Particulars: pH 7.4, 37 °C, labelled compound, covalent thioester at active-site Cys.

Substrate in series [3]: CC(C)(COP(=O)(O)OP(=O)(O)OC[C@H]1O[C@@H](n2cnc3c(N)ncnc32)[C@H](O)[C@@H]1OP(=O)(O)O)[C@@H](O)C(=O)NCCC(=O)NCCSC(=O)CCCCCCCCCCCCCCCNc1ccc([N+](=O)[O-])c2nonc12
The format is biochemical, Mus musculus. Particulars: pH 7.4, 37 °C, 2 min, labelled compound, covalent thioester at active-site Cys134.

B1: mouse zDHHC3 (Mus musculus) (protein)
chain: MMLIPTHHFRDIERKPEYLQPEKCAPPPFPGPAGAMWFIRDGCGIACAIVTWFLVLYAEFVVLFVMLVPSRDYAYSIINGIVFNLLAFLALASHCRAMLTDPGAVPKGNATKEFIESLQLKPGQVVYKCPKCCSIKPDRAHHCSVCKRCIRKMDHHCPWVNNCVGENNQKYFVLFTMYIALISLHALIMVGFHFLHCFEEDWTKCSSFSPPTTVILLILLCFEALLFLIFTSVMFGTQVHSICTDETGIEQLKKEERRWAKKTKWMNMKAVFGHPFSLGWASPFATPDQGKADPYQYVV
notes: full length, HA tag kept (pEF-Bos-HA), HEK293 membrane fraction
B1: the Km (usually the substrate concentration at which the rate is half of its maximum) in series [1] worked out at 6.83 ± 0.98 µM.

B2: mouse zDHHC4 (Mus musculus) (protein)
chain: MDFLVLFLFYLAFLLICVVLICIFTKSQRLKAVVLGGAQVCSRVIPQCLQRAVQTLLHQLFHTRHPTFIVLHLLLQGLVYAEYTCEVFGYCRELEFSLPYLLLPYVLLSVNLVFFTLTCAANPGTITKANESFLLQVYKFDDVMFPKNSRCPTCDLRKPARSKHCRLCDRCVHRFDHHCVWVNNCIGAWNTRYFLIYLLTLTASAATIATVTAAFLLRLVTVSDLYQETYLDDVGHFQAVDTVFLIQHLFLAFPRIVFLLGFVIVLSMLLAGYLCFALYLAATNQTTNEWYKGDWAWCQRWPLVAWSPSAEPRIHQNIHSHGFRSNLREIFLPATPSYKKKEK
notes: as for B1
Turning to B2, the Km in series [1] was 0.69 ± 0.13 µM.

B3: mouse zDHHC2 (Mus musculus) (protein)
chain: MAPSGSGGVRRRCRRVLYWIPVVFISLLLGWSYYAYAIQLCIVSMENIGEQVVCLMAYHLLFAMFVWSYWKTIFTLPMNPSKEFHLSYAEKELLEREPRGEAHQEVLRRAAKDLPIYTRTMSGAIRYCDRCQLIKPDRCHHCSVCDKCILKMDHHCPWVNNCVGFSNYKFFLLFLAYSLLYCLFIAATDLQYFIRFWTNGLPDTQAKFHIMFLFFAAAMFSVSLSSLFGYHCWLVSKNKSTLEAFRNPVFRHGTDKNGFSLGFSKNMRQVFGDEKKYWLLPVFSSQGDGCSFPTCLVNQDPEQPSTPAGLNSTVKNPENHQFPAKPLRESQSHLLKDSQTWTESSANPGKGKAGMSNPALTMENET
notes: as for B1
In the case of B3, the Km in series [1] was found to be 2.86 ± 0.78 µM.

B4: human zDHHC4 (Homo sapiens) (protein)
chain: MDFLVLFLFYLASVLMGLVLICVCSKTHSLKGLARGGAQIFSCIIPECLQRAVHGLLHYLFHTRNHTFIVLHLVLQGMVYTEYTWEVFGYCQELELSLHYLLLPYLLLGVNLFFFTLTCGTNPGIITKANELLFLHVYEFDEVMFPKNVRCSTCDLRKPARSKHCSVCNWCVHRFDHHCVWVNNCIGAWNIRYFLIYVLTLTASAATVAIVSTTFLVHLVVMSDLYQETYIDDLGHLHVMDTVFLIQYLFLTFPRIVFMLGFVVVLSFLLGGYLLFVLYLAATNQTTNEWYRGDWAWCQRCPLVAWPPSAEPQVHRNIHSHGLRSNLQEIFLPAFPCHERKKQE
notes: full length, His6-Myc tag kept (pCEpuro-His6-Myc-1), HEK293 membrane fraction
For B4, the Km in series [2] (5 min) is 9.68 ± 2.34 µM.

B5: human zDHHC2 (Homo sapiens) (protein)
chain: MAPSGPGSSARRRCRRVLYWIPVVFITLLLGWSYYAYAIQLCIVSMENTGEQVVCLMAYHLLFAMFVWSYWKTIFTLPMNPSKEFHLSYAEKDLLEREPRGEAHQEVLRRAAKDLPIYTRTMSGAIRYCDRCQLIKPDRCHHCSVCDKCILKMDHHCPWVNNCVGFSNYKFFLLFLAYSLLYCLFIAATDLQYFIKFWTNGLPDTQAKFHIMFLFFAAAMFSVSLSSLFGYHCWLVSKNKSTLEAFRSPVFRHGTDKNGFSLGFSKNMRQVFGDEKKYWLLPIFSSLGDGCSFPTCLVNQDPEQASTPAGLNSTAKNLENHQFPAKPLRESQSHLLTDSQSWTESSINPGKCKAGMSNPALTMENET
notes: as for B4
Consider B5, for which the Km in series [2] (2 min) came out at 4.46 ± 0.49 µM.

B6: mouse zDHHC14 (Mus musculus) (protein)
chain: MPPGGGGPMKDCEYSQISTHSSSPMESPHKKKKIAARRKWEVFPGRNKFFCNGRIMMARQTGVFYLTLILILVTSGLFFAFDCRYLAEKITPAIPVVGGILFFFVMGTLLRTSFSDPGVLPRATPDEAADLERQIDIANGTSSGGYRPPPRTKEVVINGQTVKLKYCFTCKIFRPPRASHCSLCDNCVEQFDHHCPWVGNCVGKRNYRFFYMFILSLSFLTVFIFAFVITHVIHRSQQKGFLDALKDSPASVLEAVICFFSVWSIIGLSGFHTYLISSNQTTNEDIKGSWSNKRGKENYNPYSYGNIFTNCCVALCGPISPSLIDRRGYVQPDTPQPAAPSNGITMYGATQSQSDMCDQDQCIQSTKFVLQAAATPLLQSEPSLTSEELHMPGKPGLGTPCASLTLGQPTPPSSMPNLATEATLSDIMPLKDEHGGHQFLTPDEAPSPPRMLGAGSPLAHSRTMHMLGLASQDSLHEDSVRGLVKLSSV
notes: as for B1
Consider B6, for which the Km in series [1] is 0.98 ± 0.15 µM.

B7: human zDHHC14 (Homo sapiens) (protein)
chain: MPPGGGGPMKDCEYSQISTHSSSPMESPHKKKKIAARRKWEVFPGRNKFFCNGRIMMARQTGVFYLTLVLILVTSGLFFAFDCPYLAVKITPAIPAVAGILFFFVMGTLLRTSFSDPGVLPRATPDEAADLERQIDIANGTSSGGYRPPPRTKEVIINGQTVKLKYCFTCKIFRPPRASHCSLCDNCVERFDHHCPWVGNCVGKRNYRFFYMFILSLSFLTVFIFAFVITHVILRSQQTGFLNALKDSPASVLEAVVCFFSVWSIVGLSGFHTYLISSNQTTNEDIKGSWSNKRGKENYNPYSYGNIFTNCCVALCGPISPSLIDRRGYIQPDTPQPAAPSNGITMYGATQSQSDMCDQDQCIQSTKFVLQAAATPLLQSEPSLTSDELHLPGKPGLGTPCASLTLGPPTPPASMPNLAEATLADVMPRKDEHMGHQFLTPDEAPSPPRLLAAGSPLAHSRTMHVLGLASQDSLHEDSVRGLVKLSSV
notes: as for B4
As to B7, the Michaelis constant (Km) in series [2] (2 min) came to 1.78 ± 0.32 µM.

B8: HA-tagged mouse zDHHC5 (Mus musculus) (protein)
chain: MPAESGKRFKPSKYVPVSAAAIFLVGATTLFFAFTCPGLSLNVSPAVPIYNAIMFLFVLANFSMATFMDPGIFPRAEEDEDKEDDFRAPLYKTVEIKGIQVRMKWCATCRFYRPPRCSHCSVCDNCVEEFDHHCPWVNNCIGRRNYRYFFLFLLSLTAHIMGVFGFGLLYVLYHIEELSGVRTAVTMAVMCVAGLFFIPVAGLTGFHVVLVARGRTTNEQVTGKFRGGVNPFTNGCCNNVSRVLCSSPAPRYLGRPKKEKTIVIRPPFLRPEVSDGQITVKIMDNGIQGELRRTKSKGSLEITESQSADAEPPPPPKPDLSRYTGLRTHLSLATNEDSSLLGKDSPPTPTMYKYRPGYSSSSTSAAMPHSSSAKLSRGDSLKEPTSIADSSRHPSYRSEPSLEPESFRSPTFGKSFHFDPLSSGSRSSSLKSAQGTGFELGQLQSIRSEGTTSTSYKSLANQTRNGSLSYDSLLTPSDSPDFESVQAGPEPDPPLGYTSPFLSARLAQQREAERHPRLLPTGPPHREPSPVRYDNLSRHIVASLQEREKLLRQSPPLAGREEEPGLGDSGIQSTPGSGHAPRTSSSSDDSKRSPLSKTPLGRPAVPRFGKPDGLRSRGLGSPEPGTTAPYLGRSISYSSQKAPSGVSETEEVALQPLLTPKDEVQLKTTYSKSNGQPKSIGSASPGPGQPPLSSPTRGGVKKVSGVGGTTYEISV
notes: full length, HA tag kept (pEF-Bos-HA), overexpressed in HEK293 cells, native membrane fraction; 78 kDa band
Turning to B8, in series [3], the Km came to 3.59 ± 0.29 µM.
